Several values for one entry are separate records, joined by “and”; a condition that tells them apart may be missing. Equal entries are not always repeated. Where no end group is shown, it is not given here. [ ]: non-standard residue; d: D form. Hyp = O=C(O)[C@@H]1C[C@@H](O)CN1
T1: calcitonin receptor extracellular domain (hCTR.34–141-H6) (human, UniProt P30988 34-141)
T1 construct: human calcitonin receptor (CTR), extracellular domain, residues 34-141; Secreted from a pHLsec-based vector; also called CTR ECD; purified CTR ECD; source: HEK293T, transiently transfected, secreted to cell culture media, purified (IMAC, SEC)
T1 sequence (looked up): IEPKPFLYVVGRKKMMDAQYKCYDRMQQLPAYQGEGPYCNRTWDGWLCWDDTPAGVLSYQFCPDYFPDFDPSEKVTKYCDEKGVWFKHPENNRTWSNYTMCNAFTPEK

T2: RAMP3-CTR ECD fusion protein (hRAMP3.25–112-(GSA)3-hCTR.34–141-H6) (human, UniProt O60896 25-112; P30988 34-141)
T2 construct: human receptor activity-modifying protein 3 (RAMP3), extracellular domain, residues 25-112; linker, printed as (GSA)3; human calcitonin receptor (CTR), extracellular domain, residues 34-141; Secreted from a pHLsec-based vector; also called AMY receptor 3 ECD; RAMP3 ECD-CTR ECD fusion protein; source: HEK293S GnTI-, transiently transfected (PEI), secreted to cell culture media, purified (IMAC, SEC)
T2 chain: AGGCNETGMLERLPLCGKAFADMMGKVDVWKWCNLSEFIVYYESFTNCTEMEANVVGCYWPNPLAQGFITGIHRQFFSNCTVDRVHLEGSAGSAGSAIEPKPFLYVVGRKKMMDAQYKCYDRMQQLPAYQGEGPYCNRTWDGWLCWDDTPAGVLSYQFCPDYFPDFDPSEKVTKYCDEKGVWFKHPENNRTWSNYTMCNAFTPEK

T3: RAMP1-CTR ECD fusion protein (hRAMP1.24–111-(GSA)3-hCTR.34–141-H6) (human, UniProt O60894 24-111; P30988 34-141)
T3 construct: human receptor activity-modifying protein 1 (RAMP1), extracellular domain, residues 24-111; linker, printed as (GSA)3; human calcitonin receptor (CTR), extracellular domain, residues 34-141; Secreted from a pHLsec-based vector; also called AMY receptor 1 ECD; RAMP1 ECD-CTR ECD fusion; source: HEK293T, transiently transfected, secreted to cell culture media, purified (IMAC, SEC)
T3 chain: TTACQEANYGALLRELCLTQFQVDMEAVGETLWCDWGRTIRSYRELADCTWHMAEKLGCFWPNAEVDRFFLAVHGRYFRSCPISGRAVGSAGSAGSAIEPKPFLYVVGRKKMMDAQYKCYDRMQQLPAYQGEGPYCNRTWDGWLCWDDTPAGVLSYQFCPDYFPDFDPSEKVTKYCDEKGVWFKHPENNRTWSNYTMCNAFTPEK

T4: RAMP2-CTR ECD fusion protein (hRAMP2.55–140-(GSA)3-hCTR.34–141-H6) (human, UniProt O60895 55-140; P30988 34-141)
T4 construct: human receptor activity-modifying protein 2 (RAMP2), extracellular domain, residues 55-140; linker, printed as (GSA)3; human calcitonin receptor (CTR), extracellular domain, residues 34-141; Secreted from a pHLsec-based vector; also called AMY receptor 2 ECD; RAMP2 ECD-CTR ECD fusion; source: HEK293T, transiently transfected, secreted to cell culture media, purified (IMAC, SEC)
T4 chain: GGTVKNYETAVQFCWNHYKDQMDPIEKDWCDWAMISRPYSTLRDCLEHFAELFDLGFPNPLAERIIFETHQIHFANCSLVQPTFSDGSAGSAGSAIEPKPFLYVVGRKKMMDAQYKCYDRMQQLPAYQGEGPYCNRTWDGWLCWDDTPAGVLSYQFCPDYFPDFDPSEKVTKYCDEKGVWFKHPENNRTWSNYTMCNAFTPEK


Assays:
Conditions in all cases: both partners purified
[1] = biological target: T1, calcitonin receptor extracellular …; test: fluorescence polarisation; competition binding, full curves: FITC-sCT(22–32) probe 10 nM, CTR ECD 500 nM, competitive peptide at multiple concentrations, all in solution; KI from non-linear regression of anisotropy
[2] = biological target: T2, RAMP3-CTR ECD fusion protein …; test: fluorescence polarisation; competition binding, full curves: FITC-AC413(6–25) Y25P probe 10 nM, RAMP1-CTR ECD 77 nM, RAMP2-CTR ECD 67 nM or RAMP3-CTR ECD 252 nM, competitive peptide at multiple concentrations, all in solution; KI from non-linear regression of anisotropy
[3] = biological target: T3, RAMP1-CTR ECD fusion protein …; test: as above
[4] = biological target: T4, RAMP2-CTR ECD fusion protein …; test: as above

Binder	Ki [1]	pKI [1]	Ki [2] [nM]	pKI [2]	Ki [3] [nM]	pKI [3]	Ki [4] [nM]	pKI [4]
YPRTDTGAGTP-NH2 (salmon calcitonin (sCT), residues 22-32, with N26D and S29A; numbers count on: the mature 32-residue hormone; source: synthetic peptide (Genscript, HPLC-purified)) [sCT(22–32) N26D/S29A]	437 nM	6.36 -log10(M)	–	–	–	–	–	–
YPRTDTG[Hyp]GTP-NH2 (N-terminus assumed; SMILES C[C@@H](O)[C@H](NC(=O)[C@H](CC(=O)O)NC(=O)[C@@H](NC(=O)[C@H](CCCNC(=N)N)NC(=O)[C@@H]1CCCN1C(=O)[C@@H](N)Cc1ccc(O)cc1)[C@@H](C)O)C(=O)NCC(=O)N1C[C@H](O)C[C@H]1C(=O)NCC(=O)N[C@H](C(=O)N1CCC[C@H]1C(N)=O)[C@@H](C)O, salmon calcitonin (sCT), residues 22-32, with N26D and S29HYP; printed as YPRTDTG[HYP]GTP-NH2, the hydroxyproline at 29 is written here as P; numbers count on: the mature 32-residue hormone; Residue 29 is hydroxyproline, not plain proline; source: synthetic peptide (Genscript, HPLC-purified)) [sCT(22–32) N26D/S29HYP]	3180 nM	5.5 -log10(M)	–	–	–	–	–	–
YPRTDTGPGTP-NH2 (salmon calcitonin (sCT), residues 22-32, with N26D and S29P; numbers count on: the mature 32-residue hormone; source: synthetic peptide (Genscript, HPLC-purified)) [sCT(22–32) N26D/S29P]	239 nM and 314 nM	6.62 -log10(M) and 6.5 -log10(M)	333	6.48 -log10(M)	381	6.42 -log10(M)	470	6.33 -log10(M)
YPRTDTGPGT[Hyp]-NH2 (salmon calcitonin (sCT), residues 22-32, with N26D, S29P and P32HYP; numbers count on: the mature 32-residue hormone; Residue 32 is hydroxyproline, not plain proline; also called the mutated sCT(22–32); sCT(22–32) with the combined mutations (N26D, S29P, and P32HYP); source: synthetic peptide (Genscript, HPLC-purified)) [sCT(22–32) N26D/S29P/P32HYP]	95 nM	7.02 -log10(M)	118	6.93 -log10(M)	124	6.91 -log10(M)	340	6.47 -log10(M)
YPRTDTGVGTP-NH2 (salmon calcitonin (sCT), residues 22-32, with N26D and S29V; numbers count on: the mature 32-residue hormone; source: synthetic peptide (Genscript, HPLC-purified)) [sCT(22–32) N26D/S29V]	591 nM	6.23 -log10(M)	–	–	–	–	–	–
YPRTNTGPGTP-NH2 (salmon calcitonin (sCT), residues 22-32, with S29P; numbers count on: the mature 32-residue hormone; source: synthetic peptide (Genscript, HPLC-purified)) [sCT(22–32) S29P]	343 nM	6.46 -log10(M)	–	–	–	–	–	–
YPRTNTGSGT[Hyp]-NH2 (N-terminus assumed; SMILES C[C@@H](O)[C@H](NC(=O)[C@H](CC(N)=O)NC(=O)[C@@H](NC(=O)[C@H](CCCNC(=N)N)NC(=O)[C@@H]1CCCN1C(=O)[C@@H](N)Cc1ccc(O)cc1)[C@@H](C)O)C(=O)NCC(=O)N[C@@H](CO)C(=O)NCC(=O)N[C@H](C(=O)N1C[C@H](O)C[C@H]1C(N)=O)[C@@H](C)O, salmon calcitonin (sCT), residues 22-32, with P32HYP; numbers count on: the mature 32-residue hormone; Residue 32 is hydroxyproline, not plain proline; source: synthetic peptide (Genscript, HPLC-purified)) [sCT(22–32) P32HYP]	887 nM	6.05 -log10(M)	995	6 -log10(M)	887	6.05 -log10(M)	1430	5.85 -log10(M)

From paper PMC8466238, “Development of High Affinity Calcitonin Analog Fragments Targeting Extracellular Domains of Calcitonin Family Receptors” (Biomolecules, 2021)
